The supplement of paper PMC7877785
± gives the uncertainty stated by the source.

Assay: self-splicing fitness, log relative to wild type (ln ratio); higher = more splicing; Tetrahymena group I intron in knt gene, E. coli kanamycin selection, DiMSum; sequences stand for … in CUCUCU…GGAGGGAAAAGUUAUCAGGCAUGCACCUGGUAGCUAGUCUUUAAACCAAUAGAUUGCAUCGGUUUAAAAGGCAAGACCGUCAAAUUGCGGGAAAGGGGUCAACAGCCGUUCAGUACCAAGUCUCAGGGGAAACUUUGAGAUGGCCUUGCAAAGGGUAUGGUAAUAAGCUGACGGACAUGGUCCUAACCACGCAGCCAAGUCCUAAGUCAACAGAUCUUCUGUUGAUAUGGAUGCAGUUCACAGACUAAAUGUCGGUCGGGGAAGAUGUAUUCUUCUCAUAAGAUAUAGUCGGACCUCUCCUUAAUGGGAGCUAGCGGAUGAAGUGAUGCAACACUGGAGCCGCUGGGAACUAAUUUGUAUGCGAAAGUAUAUUGAUUAGUUUUGGAGUACUCGUGGUCG
Outline: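 DiMSum derived fitness as the error-weighted combination of fold changes across replicates, kanamycin versus no kanamycin, normalised to wild type. E. coli BL21(DE3) held the library, which randomised all eight P1ex-region intron nucleotides within the knt kanamycin-resistance gene on pET-22b(+). Six replicate transformations grew overnight at 37°C or 30°C on LB agar with or without 25 μg/mL kanamycin, also containing 100 μg/mL carbenicillin, 50 μM IPTG and 0.2% rhamnose, and pooled colonies were amplicon-sequenced on an Illumina HiSeq 2500.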

Sequence | self-splicing fitness (ln) (30 °C) | self-splicing fitness (ln) (37 °C)
GUUAAGCAAUAUUACGCGUU | -0.757 ± 0.08 | -1.07 ± 0.12
AACCAGCAAUAUUACGAGUG | -0.0963 ± 0.045 | -0.0773 ± 0.06
UCUCAGCAAUAUUACGGUCA | 0.115 ± 0.061 | 0.0673 ± 0.075
GCAAAGCAAUAUUACGCACC | -1.15 ± 0.17 | -1.45 ± 0.16
GCCGAGCAAUAUUACGAUGU | -0.691 ± 0.057 | -0.267 ± 0.069
CACGAGCAAUAUUACGGGUA | -3.26 ± 0.18 | -2.02 ± 0.16
UUACAGCAAUAUUACGAAUG | -1.46 ± 0.094 | -0.991 ± 0.14
ACGCAGCAAUAUUACGAAAA | -2.91 ± 0.23 | -2.7 ± 0.2
CCGCAGCAAUAUUACGUAGU | -3.89 ± 0.14 | -2.88 ± 0.18
GGAGAGCAAUAUUACGAGUC | -3.63 ± 0.35 | –
UUACAGCAAUAUUACGUCGA | -0.899 ± 0.087 | 0.0863 ± 0.093
ACCAAGCAAUAUUACGUGCA | -0.837 ± 0.065 | -0.466 ± 0.074
CGUCAGCAAUAUUACGUCCA | -1.97 ± 0.085 | -1.36 ± 0.11
GCCAAGCAAUAUUACGCUAG | -3.06 ± 0.15 | -2.25 ± 0.17
GGUCAGCAAUAUUACGAAAC | -0.257 ± 0.22 | -0.396 ± 0.22
UUCGAGCAAUAUUACGGGGA | -1.7 ± 0.18 | -0.829 ± 0.19
CGCAAGCAAUAUUACGGAAC | -3.07 ± 0.21 | -2.87 ± 0.32
AGCAAGCAAUAUUACGCGCC | -3.19 ± 0.34 | -2.46 ± 0.32
UGGAAGCAAUAUUACGGAGG | -2.93 ± 0.27 | -0.696 ± 0.15
AGGAAGCAAUAUUACGCGUA | -1.87 ± 0.15 | -0.669 ± 0.11
UACUAGCAAUAUUACGCCCU | -0.435 ± 0.14 | -0.784 ± 0.15
ACGAAGCAAUAUUACGACUC | -1.12 ± 0.072 | -0.0297 ± 0.088
CGCAAGCAAUAUUACGACUU | – | -2.07 ± 0.25
CGGCAGCAAUAUUACGUCUG | -2.32 ± 0.21 | -1.86 ± 0.19

Sequence | self-splicing fitness (ln) (30 °C) | self-splicing fitness (ln) (37 °C)
GGCUAGCAAUAUUACGAGGG | -2.39 ± 0.21 | -2.27 ± 0.42
CGGAAGCAAUAUUACGCGAA | -2.86 ± 0.27 | -1.46 ± 0.32
ACAUAGCAAUAUUACGAGGA | – | -2.56 ± 0.29
AUAUAGCAAUAUUACGAGAG | – | -2.29 ± 0.22
UUCCAGCAAUAUUACGGCGU | -1.42 ± 0.079 | -1.19 ± 0.091
AGCAAGCAAUAUUACGCUGA | -2.22 ± 0.14 | -2.07 ± 0.17
UGACAGCAAUAUUACGCCUG | -0.292 ± 0.1 | 0.595 ± 0.14
AGGCAGCAAUAUUACGCUCG | -1.75 ± 0.091 | -0.442 ± 0.12
AAACAGCAAUAUUACGGAAC | -3.5 ± 0.16 | -4.05 ± 0.28
GCCUAGCAAUAUUACGCUCU | -0.984 ± 0.06 | 0.106 ± 0.083
GAUAAGCAAUAUUACGCGAG | -1.04 ± 0.073 | -0.376 ± 0.079
GAGGAGCAAUAUUACGCGGU | -3.21 ± 0.28 | -2.76 ± 0.31
GGGAAGCAAUAUUACGUUUU | -2.68 ± 0.23 | -1.62 ± 0.25
UUGAAGCAAUAUUACGGAAA | -0.265 ± 0.1 | -0.0838 ± 0.14
GUGGAGCAAUAUUACGUUAG | -3.94 ± 0.24 | -2.35 ± 0.2
AUGUAGCAAUAUUACGCAGU | -2.49 ± 0.12 | -1.29 ± 0.11
CUCAAGCAAUAUUACGAUAU | -2.97 ± 0.14 | -1.61 ± 0.14
UGCAAGCAAUAUUACGGAAU | -2.88 ± 0.19 | -2.45 ± 0.2
AUGUAGCAAUAUUACGGUGC | -2.55 ± 0.3 | –
GCCAAGCAAUAUUACGUAGA | -1.98 ± 0.064 | -1.26 ± 0.077
UGAUAGCAAUAUUACGUGCG | -0.579 ± 0.1 | -0.921 ± 0.087
CAGGAGCAAUAUUACGGGCA | -2.48 ± 0.15 | -2.35 ± 0.22
ACUCAGCAAUAUUACGGGGA | -1.24 ± 0.074 | -0.173 ± 0.082
AUCAAGCAAUAUUACGACCG | -1.33 ± 0.15 | -0.381 ± 0.18
